Measured values: patent US20250347697A1, “Accurate Method for Generating a Phase Diagram of a Polymer” (MAX-PLANCK-GESELLSCHAFT ZUR FÖRDERUNG DER WISSENSCHAFTEN …, priority 2022, published 2025)

Tests used:
Assay type in all cases: physicochemical
[1] = target: T1, FUS (Homo sapiens, UniProt P35637); test: Effect of a small molecule drug on the phase diagram (binodal) of FUS, inPhase method; settings: compared to untreated control (DMSO); temperature phase diagram, FIG. 9
T1 construct: made in house; host or cells: SF9-ESF insect cells (baculovirus) for the unlabelled FUS
T1 sequence (P35637 1-526): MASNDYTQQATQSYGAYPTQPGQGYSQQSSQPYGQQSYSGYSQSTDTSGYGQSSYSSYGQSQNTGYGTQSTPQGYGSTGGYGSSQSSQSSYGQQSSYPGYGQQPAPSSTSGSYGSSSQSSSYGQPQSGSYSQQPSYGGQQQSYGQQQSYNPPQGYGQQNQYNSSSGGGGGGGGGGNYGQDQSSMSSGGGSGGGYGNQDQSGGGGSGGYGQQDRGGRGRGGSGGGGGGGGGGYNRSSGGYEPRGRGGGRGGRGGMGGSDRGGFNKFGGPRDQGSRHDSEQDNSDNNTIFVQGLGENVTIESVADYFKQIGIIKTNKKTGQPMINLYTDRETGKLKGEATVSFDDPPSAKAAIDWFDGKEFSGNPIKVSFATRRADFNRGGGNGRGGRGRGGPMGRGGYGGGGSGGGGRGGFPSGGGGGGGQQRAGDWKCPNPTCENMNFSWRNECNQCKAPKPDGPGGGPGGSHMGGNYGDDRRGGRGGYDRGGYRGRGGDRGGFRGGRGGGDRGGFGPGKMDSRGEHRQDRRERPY
Source text: • 1. Measure the protein concentration of the stock solutions. The stock solutions can be unlabelled, a mix of labelled and unlabelled or fully labelled protein. Solutions containing only unlabelled protein will be detected using brightfield (or phase-contrast, DIC, etc.) while the mixes that contain labelled protein can be also detected with fluorescence means. • 2. Make a titration series of the protein solution. • 3. Trigger phase separation of the protein samples. Phase separation can be triggered for example by a change in salt, pH or temperature. • 4. Immediately after triggering phase separation, encapsulate in a water-in-oil system (e.g. PicoSurf oil (Sphere Fluidics, UK)). • 5. Centrifugation after encapsulation is optional but helps in the segmentation of the condensates. This is because the centrifugation coarsens the condensates. • 6. Load the titration series into chambers for microscopy imaging. […] Now the ratio condensate over emulsion droplet volume which is the volume fraction can be determined. In case of fluorescently labelled proteins the determination of the condensate volume can be complemented by fluorescence microscopy. • 8. Perform the image and segmentation analysis and fit the measured volume-fractions to a linear regression over the protein concentrations. • 9. […]

[2] = Partition factor derived from inPhase phase diagrams (water-in-oil emulsions); settings: range over the tested temperatures and salt (KCl) concentrations, FIG. 15a
Source text: Partition factor and comparison to fluorescence-based quantification. The partition factor (PF) is often used in condensate research to characterise the up-concentration of protein in the condensed phase. It can be defined by the ratio of the condensed-over dilute-phase concentration (PF=ccon/cdil). In the condensate field it is common to determine the partition factor by comparing fluorescence intensity inside the condensate against the intensity in the dilute phase. In contrast, our method allows us to directly determine the partition factor by using the presented phase diagrams (FIG. 13 and FIG. 14).
• 1. Measure the protein concentration of the stock solutions. The stock solutions can be unlabelled, a mix of labelled and unlabelled or fully labelled protein. Solutions containing only unlabelled protein will be detected using brightfield (or phase-contrast, DIC, etc.) while the mixes that contain labelled protein can be also detected with fluorescence means. • 2. […] Now the ratio condensate over emulsion droplet volume which is the volume fraction can be determined. In case of fluorescently labelled proteins the determination of the condensate volume can be complemented by fluorescence microscopy. • 8. Perform the image and segmentation analysis and fit the measured volume-fractions to a linear regression over the protein concentrations. • 9. […]

[3] = target: T2, FUS-GFP (Homo sapiens, UniProt P35637); test: Effect of RNA on protein phase separation (poly(A) RNA : FUS-GFP at fixed molar ratio); settings: titration of total protein concentration at constant poly(A) RNA to protein ratio, FIG. 16
T2 construct: made in house; the listing says 'purified from BAC construct')
Description: FUS-GFP containing samples were prepared as described in Example 1. Phase separation was triggered by simultaneously lowering the salt concentration of the sample and adding the Poly(A) RNA in an amount to maintain a fixed molar ratio of Poly(A):FUS-GFP. The volume fraction of the condensed phase was determined as described in Example 1 and cdil and ccon, were determined, wherein ccon represents an apparent concentration containing both Poly(A) (SEQ ID No: 3) and FUS-GFP concentration. The concentration of the single components of the sample can be resolved by the knowledge of the molar ratio of RNA to protein in the condensed phase (FIG. 16).

Molecule: NC(=O)CCCCC1CCSS1 (stereo not drawn) [Lipoamide]
- effect on the phase behavior of FUS (condensed phase branch of the binodal) [1]: reduced amount of conformational changes at higher temperatures

B1: PGL-3: protein component of P granules in the germline of C. elegans; spiked with 5% PGL-3::GFP (protein, UniProt G5EBV6 1-693, looked up)
Guanyl-specific ribonuclease …: MEANKRQIVEVDGIKSYFFPHLAHYLASNDELLVNNIAQANKLAAFVLGATDKRPSNEEIAEMILPNDSSAYVLAAGMDVCLILGDDFRPKFDSGAEKLSQLGQAHDLAPIIDDEKKISMLARKTKLKKSNDAKILQVLLKVLGAEEAEEKFVELSELSSALDLDFDVYVLAKLLGFASEELQEEIEIIRDNVTDAFEACKPLLKKLMIEGPKIDSVDPFTQLLLTPQEESIEKAVSHIVARFEEASAVEDDESLVLKSQLGYQLIFLVVRSLADGKRDASRTIQSLMPSSVRAEVFPGLQRSVFKSAVFLASHIIQVFLGSMKSFEDWAFVGLAEDLESTWRRRAIAELLKKFRISVLEQCFSQPIPLLPQSELNNETVIENVNNALQFALWITEFYGSESEKKSLNQLQFLSPKSKNLLVDSFKKFAQGLDSKDHVNRIIESLEKSSSSEPSATAKQTTTSNGPTTVSTAAQVVTVEKMPFSRQTIPCEGTDLANVLNSAKIIGESVTVAAHDVIPEKLNAEKNDNTPSTASPVQFSSDGWDSPTKSVALPPKISTLEEEQEEDTTITKVSPQPQERTGTAWGSGDATPVPLATPVNEYKVSGFGAAPVASGFGQFASSNGTSGRGSYGGGRGGDRGGRGAYGGDRGRGGSGDGSRGYRGGDRGGRGSYGEGSRGYQGGRAGFFGGSRGGS
modifications: spiked with 5% PGL-3::GFP
notes: protein component of P granules in the germline of C. elegans; spiked with 5% PGL-3::GFP
- partition factor (PF=ccon/cdil) [2]: 10^1-10^3

B2: poly(A) RNA: Poly(A) RNA (SEQ ID No: 3) added to FUS-GFP at a fixed molar ratio (nucleic acid)
chain: AAAAAAAAAAAAAAAAAAAAAAAAAAAAAAAAAAAAAAAAAAAAAAAAAAAAAAAAAAAAAAAAAAAAAAAAAAAAAAAAAAAAAAAAAAAAAAAAAAAAAAAAAAAAAAAAAAAAAAAAAAAAAAAAAAAAAAAAAAAAAAAAAAAAAAAAAAAAAAAAAAAAAAAAAAAAAAAAAAAAAAAAAAAAAAAAAAAAAAAAAAAAAAAAAAAAAAAAAAAAAAAAAAAAAAAAAAAAAAAAAAAAAAAAAA
modifications: misc_feature 1..250 Poly(A) RNA
- effect of increasing the RNA to protein ratio on cdil [3]: reduces cdil
